Measured values: patent US20080226630A1 (SYMPHOGEN A S, published 2008)

Legend:
[1] = target: T1, G protein of RSV strain Long (subtype A) (human respiratory syncytial virus …, UniProt P20895 1-298); assay: cell-based or functional assay
T1 chain: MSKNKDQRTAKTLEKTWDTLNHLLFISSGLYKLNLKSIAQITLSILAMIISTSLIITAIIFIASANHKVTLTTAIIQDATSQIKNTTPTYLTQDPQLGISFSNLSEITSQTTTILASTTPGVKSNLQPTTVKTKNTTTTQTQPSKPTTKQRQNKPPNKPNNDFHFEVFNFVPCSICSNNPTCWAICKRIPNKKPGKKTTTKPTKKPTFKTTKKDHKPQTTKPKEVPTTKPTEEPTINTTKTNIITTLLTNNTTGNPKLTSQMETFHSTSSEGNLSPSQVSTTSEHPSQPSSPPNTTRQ

[2] = target: T2, recombinant human fractalkine (CX3CL1; R&D systems) (human, UniProt P78423 25-100); assay: ELISA on recombinant human fractalkine
T2 sequence (looked up): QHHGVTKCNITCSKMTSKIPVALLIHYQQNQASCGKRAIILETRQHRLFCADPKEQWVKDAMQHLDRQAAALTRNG

[3] = target: T3, G protein of RSV strain 18537 (subtype B) (human respiratory syncytial virus …, UniProt P20896 1-292); assay: cell-based or functional assay
T3 sequence: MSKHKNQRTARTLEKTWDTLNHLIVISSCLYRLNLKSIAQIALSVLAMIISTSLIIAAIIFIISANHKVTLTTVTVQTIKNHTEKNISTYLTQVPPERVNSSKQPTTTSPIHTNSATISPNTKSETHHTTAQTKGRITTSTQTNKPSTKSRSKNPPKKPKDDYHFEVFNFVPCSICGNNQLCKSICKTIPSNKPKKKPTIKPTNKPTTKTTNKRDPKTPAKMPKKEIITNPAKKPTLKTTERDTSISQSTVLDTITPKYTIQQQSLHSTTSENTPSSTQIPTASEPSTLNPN

[4] = target: T4, recombinant RSV protein G, G(B): residues 66-292 of strain 18537 (human respiratory syncytial virus …, UniProt P20896 66-292); assay: SPR Biacore 3000, Fab over amine-coupled recombinant protein G
T4 construct: also called soluble recombinant G protein; recombinant protein G
T4 sequence: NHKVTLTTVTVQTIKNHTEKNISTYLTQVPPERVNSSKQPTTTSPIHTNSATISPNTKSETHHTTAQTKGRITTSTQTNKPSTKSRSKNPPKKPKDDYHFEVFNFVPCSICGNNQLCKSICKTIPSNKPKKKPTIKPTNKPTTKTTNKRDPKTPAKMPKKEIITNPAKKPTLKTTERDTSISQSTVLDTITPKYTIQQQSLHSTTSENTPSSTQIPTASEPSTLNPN

[5] = target: F protein of RSV strain A2 (human respiratory syncytial virus …, UniProt P03420 26-574); assay: cell-based or functional assay
[6] = target: F protein of RSV strain Long (human respiratory syncytial virus …, UniProt P12568 26-574); assay: cell-based or functional assay
[7] = target: F protein of RSV strain 18537 (human respiratory syncytial virus …, UniProt P13843 26-574); assay: cell-based or functional assay
Sequence of F protein of RSV strain 18537 (P13843 26-574): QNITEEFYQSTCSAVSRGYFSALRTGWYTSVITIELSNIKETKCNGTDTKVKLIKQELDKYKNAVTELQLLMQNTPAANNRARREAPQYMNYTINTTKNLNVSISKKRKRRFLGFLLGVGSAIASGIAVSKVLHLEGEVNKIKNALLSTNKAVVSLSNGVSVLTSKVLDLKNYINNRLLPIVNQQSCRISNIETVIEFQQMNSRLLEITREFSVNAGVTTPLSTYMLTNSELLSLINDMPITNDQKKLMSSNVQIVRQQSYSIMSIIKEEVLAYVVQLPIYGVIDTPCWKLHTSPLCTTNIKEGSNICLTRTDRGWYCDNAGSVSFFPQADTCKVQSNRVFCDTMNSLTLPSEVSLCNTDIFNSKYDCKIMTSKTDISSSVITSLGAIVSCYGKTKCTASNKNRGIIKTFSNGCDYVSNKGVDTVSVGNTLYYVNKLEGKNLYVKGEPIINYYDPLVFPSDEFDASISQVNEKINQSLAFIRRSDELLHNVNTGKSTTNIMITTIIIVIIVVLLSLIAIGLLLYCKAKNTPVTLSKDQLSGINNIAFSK

Sequence of F protein of RSV strain A2 (P03420 26-574): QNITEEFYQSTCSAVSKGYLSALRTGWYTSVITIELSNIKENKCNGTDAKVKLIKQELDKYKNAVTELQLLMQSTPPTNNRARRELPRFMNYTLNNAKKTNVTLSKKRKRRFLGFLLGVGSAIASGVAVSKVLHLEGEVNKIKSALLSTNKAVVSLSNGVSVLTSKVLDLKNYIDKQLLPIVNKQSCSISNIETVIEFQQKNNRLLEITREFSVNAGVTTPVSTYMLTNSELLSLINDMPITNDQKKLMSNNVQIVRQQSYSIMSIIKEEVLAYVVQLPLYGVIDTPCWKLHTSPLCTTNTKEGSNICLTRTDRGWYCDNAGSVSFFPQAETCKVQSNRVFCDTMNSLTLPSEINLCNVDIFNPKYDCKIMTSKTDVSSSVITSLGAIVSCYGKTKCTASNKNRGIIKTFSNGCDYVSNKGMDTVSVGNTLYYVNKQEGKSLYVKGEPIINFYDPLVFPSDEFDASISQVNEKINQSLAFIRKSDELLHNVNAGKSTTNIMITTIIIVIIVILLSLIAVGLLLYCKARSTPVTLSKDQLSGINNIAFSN
Sequence of F protein of RSV strain Long (P12568 26-574): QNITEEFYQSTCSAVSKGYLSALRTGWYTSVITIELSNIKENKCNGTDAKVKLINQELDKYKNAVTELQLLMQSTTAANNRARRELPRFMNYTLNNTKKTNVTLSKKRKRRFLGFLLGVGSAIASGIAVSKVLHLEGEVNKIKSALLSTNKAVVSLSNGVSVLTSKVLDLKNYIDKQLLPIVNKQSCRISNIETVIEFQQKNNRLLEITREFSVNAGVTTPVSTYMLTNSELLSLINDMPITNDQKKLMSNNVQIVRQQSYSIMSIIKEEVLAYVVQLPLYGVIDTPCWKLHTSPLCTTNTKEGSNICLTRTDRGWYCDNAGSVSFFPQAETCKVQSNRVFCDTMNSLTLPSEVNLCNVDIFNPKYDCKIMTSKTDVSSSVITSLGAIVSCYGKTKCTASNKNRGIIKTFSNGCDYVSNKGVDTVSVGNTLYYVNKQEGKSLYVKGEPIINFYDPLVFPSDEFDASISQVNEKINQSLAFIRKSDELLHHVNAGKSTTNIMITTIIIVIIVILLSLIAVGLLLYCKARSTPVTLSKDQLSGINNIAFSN

B1: antibody 888 (clone 888) (antibody, human IgG1, kappa, V domains shown)
VH: QLQLQESGPGLVKPSETLSLTCTASGGSINSSNFYWGWIRQPPGKGLEWIGSIFYSGTTYYNPSLKSRVTISVDTSKNQFSLKLSPVTAADTAVYHCARHGFRYCNNGVCSINLDAFDIWGQGTMVTVSS
VL: DIVMTQSPLSLPVTPGAPASISCRSSQSLLRTNGYNYLDWYLQKPGQSPQLLIYLGSIRASGVPDRFSGSGSGTDFTLKISRVEAEDVGVYYCMQSLQTSITFGQGTRLEIKR
- EC50, PRNT with complement, RSV Long [1]: 0.14 µg/mL
- binding result [2]: no binding

B2: antibody 835 (clone 835) (antibody, human IgG1, kappa, V domains shown)
VH: QVQLVQSGAEVKRPGASVKVSCKASGYTFISYGFSWVRQAPGQGLEWMGWSSVYNGDTNYAQKFHGRVNMTTDTSTNTAYMELRGLRSDDTAVYFCARDRNVVLLPAAPFGGMDVWGQGTMVTVSS
VL: DIQLTQSPSFLSASLEDRVTITCRASQGISSYLAWYQQKPGKAPKLLLDAASTLQSGVPSRFSGSGSGTEFTLTISSLQPEDFATYYCQQLNSYPRTFGQGTKVDIKR
- binding result [2]: no binding

B3: antibody 816 (clone 816) (antibody, human IgG1, kappa, V domains shown)
VH: EVQLLESGGGLVQPGGSLRLSCVASGFTFSTYAMTWVRQAPGKGLEWVSVIRASGDSEIYADSVRGRFTISRDNSKNTVFLQMDSLRVEDTAVYFCANIGQRRYCSGDHCYGHFDYWGQGTLVTVSS
VL: DIVMTQSPLSLPVTPGEPASISCRSSQSLLHSDGRYYVDWYLQKPGQSPHLLIYLASNRASGVPDRFTGSGSGTDFTLKISRVEAEDVGVYYCMQGLHTPWTFGQGTKVDIKR
- binding result [2]: no binding

B4: antibody 853 (clone 853) (antibody, human IgG1, kappa, V domains shown)
VH: EVQLVQSGAEVKKPGQSLKISCKTSGYIFTNYWIGWVRQRPGKGLEWMGVIFPADSDARYSPSFQGQVTISADKSIGTAYLQWSSLKASDTAIYYCARPKYYFDSSGQFSEMYYFDFWGQGTLVTVSS
VL: EIVLTQSPGTLSLSPGERATLSCRASQSVSSNYLAWYQQKPGQAPRLLIYGASSRAAGMPDRFSGSGSGTDFTLTISRLEPEDFAVYYCQQYGNSPLTFGGGTEVEIKR
- EC50, PRNT with complement, RSV Long [1]: 1.49 µg/mL
- EC50, PRNT with complement, RSV Long (new determination) [1]: 0.13 µg/mL
- EC50, PRNT with complement, RSV 18537 [3]: 0.14 µg/mL
- binding result [2]: no binding

B5: antibody 793 (clone 793) (antibody, human IgG1, kappa, V domains shown)
VH: QVQLVESGGGLVKPGGSLRLSCAASGFPFGDYYMSWIRQAPGKGLEWVAYINRGGTTIYYADSVKGRFTISRDNAKNSLFLQMNSLRAGDTALYYCARGLILALPTATVELGAFDIWGQGTMVTVSS
VL: DIQMTQSPSSLSASVGDRVTITCRASQSITGYLNWYQQKPGKAPKLLIYATSTLQSEVPSRFSGSGSGTDFTLTISSLQPEDFATYYCQQSYNTLTFGGGTKVEIKR
- EC50, PRNT with complement, RSV Long [1]: 2.52 µg/mL
- EC50, PRNT with complement, RSV 18537 [3]: 0.09 µg/mL
- binding result [2]: no binding

B6: antibody 855 (clone 855) (antibody, human IgG1, kappa, V domains shown)
VH: QVQLVQSGPEVKKPGASVKVSCKASGYVLTNYAFSWVRQAPGQGLEWLGWISGSNGNTYYAEKFQGRVTMTTDTSTSTAYMELRSLRSDDTAVYFCARDLLRSTYFDYWGQGTLVTVSS
VL: DIQMTQSPSSVSASVGDRVTITCRASQAISNWLAWYQQKPGKAPKLLIYAASSLQSGVPSRFSGSGSGTDFTLTISGLQPEDFATYYCQQADTFPFTFGPGTKVDIKR
- EC50, PRNT with complement, RSV Long [1]: 6.35 µg/mL
- binding result [2]: no binding

B7: Fab fragment of antibody 859 (Fab)
VH: QVQLVESGGGVVQPGRSLRLSCAVSGSSFSKYGIHWVRQAPGKGLEWVAVISYDGSKKYFTDSVKGRFTIARDNSQNTVFLQMNSLRAEDTAVYYCATGGGVNVTSWSDVEHSSSLGYWGLGTLVTVSS
light: DIQMTQSPSSLSASVGDRVTITCRASQGIRNYLAWYQQKPGKVPKLLVFAASTLQSGVPSRFSGSGSGTDFTLTISSLQPEDVATYYCQRYNSAPLTFGGGTKVEIKRTVAAPSVFIFPPSDEQLKSGTASVVCLLNNFYPREAKVQWKVDNALQSGNSQESVTEQDSKDSTYSLSSTLTLSKADYEKHKVYACEVTHQGLSSPVTKSFNRGEC
notes: also called Fab clone 859
- Kd [4]: 0.12 nM
- koff [4]: 4.63e-05 s⁻¹
- kon [4]: 380000 M⁻¹ s⁻¹
- t1/2 [4]: 4.17 h

B8: antibody 856 (clone 856) (antibody, human IgG1, kappa, V domains shown)
VH: QVQLVQSGAEVKKPGASVKVSCKASGYTFSNYGFSWVRQAPGRGLEWMGWISAYNGNTYYAQNLQGRVTMTTDTSTTTAYMVLRSLRSDDTAMYYCARDGNTAGVDMWSRDGFDIWGQGTMVTVSS
VL: DIVMTQTPLSLPVTPGEPASISCRSSQSLLDSNDGNTYLDWYLQKPGQSPQLLIYTFSYRASGVPDRFSGSGSGTDFTLKISRVEAEDVGVYYCMQRIEFPYTFGQGTKLEIKR
- binding result [2]: no binding

B9: Palivizumab (Synagis) (antibody, V domains shown)
VH: QVTLRESGPALVKPTQTLTLTCTFSGFSLSTSGMSVGWIRQPPGKALEWLADIWWDDKKDYNPSLKSRLTISKDTSKNQVVLKVTNMDPADTATYYCARSMITNWYFDVWGAGTTVTVSS
VL: DIQMTQSPSTLSASVGDRVTITCKCQLSVGYMHWYQQKPGKAPKLLIYDTSKLASGVPSRFSGSGSGTEFTLTISSLQPDDFATYYCFQGSGYPFTFGGGTKLEIK
- EC50, PRNT with complement, RSV A2 [5]: 0.15 µg/mL
- EC50, PRNT with complement, RSV Long [6]: 0.14 µg/mL
- EC50, PRNT with complement, RSV 18537 [7]: 0.2 µg/mL

B10: antibody 841 (clone 841) (antibody, human IgG1, kappa, V domains shown)
VH: QVQLVQSGAEVKKPGASVKVSCKASGYTFISFGISWVRQAPGQGLEWMGWISAYNGNTDYAQRLQDRVTMTRDTATSTAYLELRSLKSDDTAVYYCTRDESMLRGVTEGFGPIDYWGQGTLVTVSS
VL: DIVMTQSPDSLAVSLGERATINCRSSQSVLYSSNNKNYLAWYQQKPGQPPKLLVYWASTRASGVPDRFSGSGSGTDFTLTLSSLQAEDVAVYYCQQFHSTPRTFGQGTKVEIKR
- binding result [2]: no binding
